Test results published in the supplement of paper PMC10567573.
± gives the standard deviation.

Assay: protein stability index of a GFP-peptide fusion (GPS, HEK-293T) (PSI 1-6); higher = more stable
Details: c terminus: a fixed tail appended
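Further: 24-mer peptide tiles fused after GFP, lentivirally expressed, FACS-sorted into six equal bins by GFP/DsRed ratio, decoded by Illumina sequencing, PSI is the read-weighted mean bin number.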

| Sequence | protein stability index (treatment: DMSO) | protein stability index (treatment: MLN4924 1 uM, 8 h) |
| --- | --- | --- |
| MSSEVSARRDAKKLVRSPSGLRMV [ZFYVE21] | 3.67 ± 0.091 | 3.58 ± 0.28 |
| GSYTVQSELGDYDPDECGSDYISE [EPB41L3] | 4.83 ± 0.48 | 5.2 ± 0.22 |
| GMNGQMLCNLGKERFLELAPDFVG [ETS2] | 2.89 ± 0.32 | 2.91 ± 0.21 |
| PVTCCDVSSNNRLVVTGSGEHASV [TLE6] | 4.19 ± 0.22 | 4.37 ± 0.16 |
| DFTTAAEDQPINLCDKLPPATALG [NOL4L] | 4.83 ± 0.18 | 4.78 ± 0.1 |
| FISVFSNLLESKADGIEVSYNACG [ZER1] | 2.3 ± 0.49 | 2.17 ± 0.17 |
| STWLILHHKVYDLTKFLEEHPGGE [CYB5A] | 2.17 ± 0.29 | 2.21 ± 0.32 |
| HGSGSSLVVIQQPSLDSRQRLDYE [SPRY1] | 4.12 ± 0.28 | 3.99 ± 0.31 |
| MSDTAVADTRRLNSKPQDLTDAYG [SNX12] | 4.96 ± 0.24 | 5.06 ± 0.14 |
| GCQPEDRRRRIIINVGGIKYSLPW [KCNG1] | 2.36 ± 0.52 | 2.5 ± 0.44 |
| VCDLQSLLGYTPEELHAMLDVKPD [ETS1] | 4.04 ± 0.21 | 4.07 ± 0.12 |
| IVSRATGRCLEVEMSKDANFGLRL [GALNT9] | 2.66 ± 0.76 | 2.72 ± 0.67 |
| ILKSQKERQCALRVFKARIYTNRY [FBXO39] | 2.41 ± 0.35 | 2.46 ± 0.29 |
| ALKMTWHVHCFTCAACKTPIRNRA [PDLIM7] | 2.5 ± 0.51 | 2.3 ± 0.58 |
| FPVSVTQQSPAAVSMETYHVTLTL [C2CD2L] | 3.29 ± 0.38 | 2.9 ± 0.36 |
| ILIVDWDVHHGNGTQHMFEDDPSV [HDAC6] | 2.18 ± 0.23 | 2.39 ± 0.21 |
| KGPLVPFPNQKSEAAEPPKTPPSS [KMT5A] | 5.25 ± 0.25 | 5.39 ± 0.21 |
| VPGTQVGQGGKLWDPSVQSCKEGL [ZNF263] | 4.12 ± 0.12 | 4.26 ± 0.18 |
| NWLIKYDCPMDSSSSRDTDWVVVK [PI4K2A] | 2.83 ± 0.77 | 3.1 ± 0.17 |
| SVEAGGSVHFDGETIEGAPPLWAA [FEM1A] | 4.09 ± 0.15 | 4.12 ± 0.48 |
| NLVSVGYQAGKPDALTKLEQGEPL [ZNF649] | 4.39 ± 0.27 | 4.17 ± 0.4 |
| KQKTSAALSTMGTLICRKLGGVKK [TPD52L3] | 2.98 ± 0.29 | 2.83 ± 0.34 |
| LTQLHRLSLESSPDAPDHTSETSH [PLEKHN1] | 5.23 ± 0.32 | 5.22 ± 0.21 |

| Sequence | protein stability index (treatment: DMSO) | protein stability index (treatment: MLN4924 1 uM, 8 h) |
| --- | --- | --- |
| TKSPCESNNKKNDEMQEVPNRVLA [SPANXN3] | 5.22 ± 0.2 | 5.33 ± 0.19 |
| AKNFHVKAVMKTSVLLSWEIPENY [PTPRD] | 2.89 ± 0.27 |  |
| GGSSAVGQFVSLDGAGKTPTLGGG [BRF1] | 4.34 ± 0.49 | 4.82 ± 0.33 |
| SELDADHPGFKDNVYRKRRKYFAD [TPH1] | 4.13 ± 0.21 | 4.19 ± 0.2 |
| DHLTTVLYLQLAICSSLQNLEKTI [C8orf76] | 3.21 ± 0.57 | 3.41 ± 0.35 |
| LSLFVQKLGNLMSLDISGHMILEN [ZER1] | 3.24 ± 0.06 | 3.42 ± 0.48 |
| DCMLSEEGATLLLRGLCANTVLRF [LRRC45] | 2.44 ± 0.48 | 2.42 ± 0.4 |
| IVSEVQFVESSGGGSSAVGQFVSL [BRF1] | 2.25 ± 0.23 | 2.23 ± 0.26 |
| VSEDFNKMNFIKTYPAHQNRVSAI [WDFY1] | 2.9 ± 0.21 | 3.03 ± 0.46 |
| MLDFLSERPWIKRMIFKLFSQETV [APMAP] | 1.98 ± 0.3 | 1.82 ± 0.26 |
| YLLQWLKSDKALMMLFNDGTFQVN [PLK2] | 2.73 ± 0.53 | 2.53 ± 0.51 |
| DGTAENGIHPLSSSEVDELIHKAD [PALM] | 5.38 ± 0.2 | 5.35 ± 0.42 |
| PRPGTGQSRSFRILAHLTGTEFMQ [PDLIM7] | 2.47 ± 0.046 | 2.83 ± 0.27 |
| EAALNSKDAALATALGDKKSLEGD [LMNB1] | 5.52 ± 0.25 | 5.5 ± 0.078 |
| QHGFFRRTADEATNTGPAGSSAST [DYRK1B] | 5.02 ± 0.19 | 4.93 ± 0.16 |
| KGISSHSRSSLMPLRNDVDKRGET [SLC2A12] | 5 ± 0.39 | 5.06 ± 0.22 |
| PPMTQAQAVSAPGILNRPPAPTAT [ZNF207] | 5.01 ± 0.18 | 5.09 ± 0.21 |
| EERAAPVLSCEAATQTERRLDLAA [FAM189A2] | 5.05 ± 0.28 | 4.99 ± 0.12 |
| KVHMKDVMSALWVSGLDSSYLREQ [GAN] | 2.1 ± 0.47 | 2.23 ± 0.26 |
| VISPMYQLHKPLAEGTPRSNHSAQ [IKZF1] | 3.76 ± 0.32 | 4.06 ± 0.31 |
| FNLTPPICEQAEYHMFQREKVEVQ [KCNAB2] | 3.72 ± 0.24 | 3.88 ± 0.17 |
| RDGALLGCSLTADGLPLHFFIQTV [MYORG] | 2.35 ± 0.31 | 2.36 ± 0.52 |
| FLCDLYPLLKLACTNTYVTGLSMI [OR4A15] | 2.82 ± 0.23 | 3.25 ± 0.45 |

| Sequence | protein stability index (treatment: DMSO) | protein stability index (treatment: MLN4924 1 uM, 8 h) |
| --- | --- | --- |
| VMFKEPIEILPNVCYTACATLKGP [BTBD1] | 2.12 ± 0.22 | 2.14 ± 0.26 |
| LKTLEEGLEGLEDAPPVELQLLHE [FANCE] | 4.81 ± 0.26 | 4.91 ± 0.38 |
| VITKHNDDEQYAWESSAGGSFTVR [HSP90AB1] | 3.98 ± 0.2 | 4.16 ± 0.21 |
| YQQLCIYWTKYYDFKNPIIEKYLR [OAS1] | 2.92 ± 0.53 | 2.46 ± 0.7 |
| PLSPIQASSVHLKSESSLPHQTSK | 5.02 ± 0.19 | 5.05 ± 0.088 |
| DMSWTCGNQDYKYRVSDVTKAGHS [VDR] | 2.73 ± 0.15 | 2.74 ± 0.095 |
| ELEKNFSNFPRQYFALRKILKQLI [TRIM39] | 2.58 ± 0.92 | 2.85 ± 1.3 |
| VVFHCEFSSERGPRMCRYVRERDR [CDC25A] | 2.41 ± 0.56 | 2.4 ± 0.3 |
| RRLKTTRLKEYTIKSHSSLPPNNS [DAPK3] | 3.44 ± 0.3 | 3.61 ± 0.28 |
| DGVKESSESTNTTIEDEDTKVRKQ [CAMK2A] | 5.65 ± 0.13 | 5.59 ± 0.29 |
| NQEILLPGGITSHQLLGLFPSTSY [TNXB] | 2.58 ± 0.092 | 2.53 ± 0.27 |
| PPDRTLGCWATDAAPAAGLCGAGS [RSPH3] | 3.79 ± 0.15 | 3.71 ± 0.32 |
| MDEEKLKQLNCVEISALNGNRINV [DLC1] | 3.6 ± 0.34 | 3.67 ± 0.3 |
| DTRLRYSFFVPRPTPSTPRPTPQD [ADAMTS4] | 3.64 ± 0.15 | 3.74 ± 0.089 |
| RSNADYQYQLLRCNVDLLKIIQLG [CNOT7] | 2.61 ± 0.46 | 2.51 ± 0.34 |
| TRVNLSSDTESTDLPSSTPVANSG [DLC1] | 5.05 ± 0.1 | 5.26 ± 0.11 |
| LNGDYGENIYPYEEDKDEKSSIYE [MIA2] | 3.78 ± 0.7 | 3.94 ± 0.72 |
| LLTSPRAINNLVLQGCSSIGLRLV [KLHL14] | 2.92 ± 0.53 | 2.74 ± 0.69 |
| AEAEALYSAYIRRCACAASSDESP [TTC32] | 3.25 ± 0.28 | 3.42 ± 0.3 |
| PHTPQTPGQGGPASTPAQTAAGGQ [NR2F2] | 5.3 ± 0.18 | 5.27 ± 0.23 |
| EEEQDILQRLRENAAHLGDKRRDL [TRIM39] | 5.06 ± 0.26 | 4.97 ± 0.059 |
| KKCGRENWTVAFAPDGSYFAWSQG [WSB1] | 2.33 ± 0.53 | 2.22 ± 0.31 |
| ILIASRDIAAGEELLYDYGDRSKA [KMT5A] | 3.44 ± 0.45 | 3.64 ± 0.65 |

| Sequence | protein stability index (treatment: DMSO) | protein stability index (treatment: MLN4924 1 uM, 8 h) |
| --- | --- | --- |
| LMSYERRQILHLITMMALKVLGEL [TENT5D] | 2.67 ± 0.24 | 2.39 ± 0.31 |
| TPRGPDPALLEATGGAAGAGGAGR [KCTD13] | 5.13 ± 0.23 | 5.18 ± 0.21 |
| AKREETKAMESQRAYRFVQGKDWG [SPOPL] | 3.09 ± 0.61 | 3.59 ± 0.37 |
| ADLRLGGQPAPPQLLLGRLFRWPD [SMAD6] | 2.84 ± 0.13 | 2.83 ± 0.23 |
| HVFSELWDLSEAWMQANYDPLSDS [ELOA2] | 2.6 ± 0.32 | 2.63 ± 0.31 |
| DYPYSPPAFRFLTKMWHPNIYETG [CDC34] | 2.17 ± 0.62 | 1.94 ± 0.28 |
| PPAELKAEPGFEPADCKRKEEAGA [CEBPB] | 5.55 ± 0.23 | 5.68 ± 0.13 |
| PADSAQLLSLNSLLPESGIVADIE [TFE3] | 4.93 ± 0.19 | 5.1 ± 0.19 |
| RLRKHQHVGDFARDLAARWKKLVL [ELOA2] | 2.23 ± 0.61 | 2.54 ± 0.9 |
| SEAQLTDAETSKLIYDFIEDQGGL [WAS] | 4.53 ± 0.38 | 4.62 ± 0.23 |
| SAGNAPLNEEINIASSDSEVEIVG [C18orf25] | 5.27 ± 0.31 | 5.46 ± 0.19 |
| DNDPRDLIGDFSKGYLFHTVAGKH [CDC25A] | 3.2 ± 0.13 | 3.41 ± 0.19 |
| VWAHNLIAIARLRGSDLKVLEVTE [FBXO33] | 2.63 ± 0.85 | 2.95 ± 1.1 |
| TGTKKVTRILDGGNPFLDVPQALS [PSD2] | 3.24 ± 0.36 | 3.4 ± 0.12 |
| MAMVVSTWRDPQDEVPGSQGSQAS [NR2F2] | 4.05 ± 0.27 | 4.32 ± 0.25 |
| EGKMYTARKGKGAFCNGQKLQVSQ [IMPA1] | 3.52 ± 0.33 | 3.93 ± 0.32 |
| PSEICDRLVNEYVELVNAACNFEP [ZER1] | 3.15 ± 0.3 | 3.17 ± 0.23 |
| AEPDMDDPAYIAVLVLIFNAAKTC [INTS4] | 2.37 ± 0.47 | 2.12 ± 0.29 |
| QLSSFGSVDWLSQSSCSGPTHTPR [VENTX] | 3.48 ± 0.3 | 3.69 ± 0.29 |
| LPLGIKVYEDETKVVHAVDGTAEN [PALM] | 5.02 ± 0.17 | 5.03 ± 0.23 |
| RSSLLACILLSALGYLLLGAATNV [MFSD9] | 2.9 ± 0.34 | 3.44 ± 0.26 |
